Blank lines part the entries; values can stand above or below the binder they belong to.
Assays:
mouse IL-13 = biological target: T1, mouse IL-13 (mouse, UniProt P20109 19-131, limits assumed); assay: SPR (Biacore 8K+), antibody captured on anti-human IgG Fc chip, IL-13 as analyte, 25 C
T1 construct: also called recombinant mouse IL-13
T1 sequence (looked up): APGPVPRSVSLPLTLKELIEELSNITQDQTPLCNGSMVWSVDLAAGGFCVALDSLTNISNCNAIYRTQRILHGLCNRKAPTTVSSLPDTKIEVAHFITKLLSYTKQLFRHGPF

human IL-13 [1] = biological target: T2, human IL-13 (human, UniProt P35225 25-146, limits assumed); assay: KinExA, solution equilibrium, free antigen captured on Ref1-coated beads, 25 C
T2 construct: The KinExA antigen was detected with an anti-HIS IgG, so it probably carried a HIS tag; also called Interleukin-13; hIL-13
T2 sequence (P35225 other isoform, or with tags, fused parts or gaps limits assumed): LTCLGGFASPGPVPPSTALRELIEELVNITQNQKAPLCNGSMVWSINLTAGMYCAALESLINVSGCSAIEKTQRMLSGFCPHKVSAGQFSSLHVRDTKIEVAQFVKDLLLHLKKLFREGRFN

cynomolgus IL-13 = cynomolgus IL-13 (cynomolgus, UniProt Q0PW92 21-132); assay: as above
cynomolgus IL-13, sequence (Q0PW92 entry or part of it): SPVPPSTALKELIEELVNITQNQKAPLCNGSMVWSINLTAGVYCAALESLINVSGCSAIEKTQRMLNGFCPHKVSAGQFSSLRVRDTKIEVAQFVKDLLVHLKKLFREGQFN

human IL-13 [2] = biological target: T2, human IL-13; assay: KinExA, 25 C
human IL-13 [3] = biological target: T2, human IL-13; assay: cell-based or functional assay
human IL-13 [4] = biological target: T2, human IL-13; assay: SPR (Biacore 8K+), antibody captured, human IL-13 as analyte, 37 C; less than 5% decay in 5,400 s, KD estimated
human IL-13 [5] = biological target: T2, human IL-13; assay: SPR array (Carterra LSA), antibody captured on anti-human pAb HC30M chip, human IL-13 0.05-100 nM as analyte, 25 C, 1:1 fit
human IL-13 [6] = biological target: T2, human IL-13; assay: SPR (Biacore 8K+), antibody captured on anti-human Fc CM4 chip, human IL-13 0.6-10 nM as analyte, 37 C, 1:1 fit
human IL-13 [7] = biological target: T2, human IL-13; assay: SPR (Biacore 8K+), antibody captured on anti-human pAb CM4 chip, human IL-13 0.6-10 nM as analyte, 37 C, 1:1 fit
human IL-13 [8] = biological target: T2, human IL-13; assay: cell-based or functional assay; remark: listed apart in the source

B1: AbG (antibody, human IgG1, kappa)
heavy: QVTLRESGPALVKPTQTLTLTCTVSGASLSAYSVNWIRQPPGKALEWLAMIWGDGKIVYNSALKSRLTISKDTSKNQVVLTMTNMDPVDTATYYCAGDGYFPYAMDNWGQGSLVTVSSASTKGPSVFPLAPSSKSTSGGTAALGCLVKDYFPEPVTVSWNSGALTSGVHTFPAVLQSSGLYSLSSVVTVPSSSLGTQTYICNVNHKPSNTKVDKRVEPKSCDKTHTCPPCPAPELLGGPSVFLFPPKPKDTLYITREPEVTCVVVDVSHEDPEVKFNWYVDGVEVHNAKTKPREEQYNSTYRVVSVLTVLHQDWLNGKEYKCKVSNKALPAPIEKTISKAKGQPREPQVYTLPPSREEMTKNQVSLTCLVKGFYPSDIAVEWESNGQPENNYKTTPPVLDSDGSFFLYSKLTVDKSRWQQGNVFSCSVMHEALHNHYTQKSLSLSPGK
light: DIVMTQSPDSLSVSLGERATINCRASKSVDSYGNSYMHWYQQKPGQPPKLLIYLASNLESGVPDRFSGSGSGTDFTLTISSLQAEDVAVYYCQQNNEDPRTFGGGTKVEIKRTVAAPSVFIFPPSDEQLKSGTASVVCLLNNFYPREAKVQWKVDNALQSGNSQESVTEQDSKDSTYSLSSTLTLSKADYEKHKVYACEVTHQGLSSPVTKSFNRGEC
notes: also called Antibody AbG
binding result (mouse IL-13): no binding
Kd (human IL-13 [1]): 0.00023 nM
koff (human IL-13 [1]): 4.8e-07 s⁻¹
kon (human IL-13 [1]): 2.06e+06 M⁻¹ s⁻¹
Kd (cynomolgus IL-13): 0.00072 nM
koff (cynomolgus IL-13): 1.77e-06 s⁻¹
kon (cynomolgus IL-13): 2.46e+06 M⁻¹ s⁻¹
fold higher affinity than Ref2 (human IL-13 [2]): 40 fold
IC50, HEK-Blue IL-13Ra1/IL-4Ra STAT6-SEAP reporter assay (human IL-13 [3]): 0.174 µg/mL
Kd (human IL-13 [4]): < 0.015 nM
Kd (human IL-13 [5]): < 0.1 nM
Kd (human IL-13 [6]): 0.0126 nM
koff (human IL-13 [6]): 7.68e-06 s⁻¹
kon (human IL-13 [6]): 639000 M⁻¹ s⁻¹

B3: Ref1 (antibody, human IgG1, kappa)
heavy: QVTLRESGPALVKPTQTLTLTCTVSGFSLSAYSVNWIRQPPGKALEWLAMIWGDGKIVYNSALKSRLTISKDTSKNQVVLTMTNMDPVDTATYYCAGDGYYPYAMDNWGQGSLVTVSSASTKGPSVFPLAPSSKSTSGGTAALGCLVKDYFPEPVTVSWNSGALTSGVHTFPAVLQSSGLYSLSSVVTVPSSSLGTQTYICNVNHKPSNTKVDKRVEPKSCDKTHTCPPCPAPELLGGPSVFLFPPKPKDTLYITREPEVTCVVVDVSHEDPEVKFNWYVDGVEVHNAKTKPREEQYNSTYRVVSVLTVLHQDWLNGKEYKCKVSNKALPAPIEKTISKAKGQPREPQVYTLPPSREEMTKNQVSLTCLVKGFYPSDIAVEWESNGQPENNYKTTPPVLDSDGSFFLYSKLTVDKSRWQQGNVFSCSVMHEALHNHYTQKSLSLSPGK
light: DIVMTQSPDSLSVSLGERATINCRASKSVDSYGNSFMHWYQQKPGQPPKLLIYLASNLESGVPDRFSGSGSGTDFTLTISSLQAEDVAVYYCQQNNEDPRTFGGGTKVEIKRTVAAPSVFIFPPSDEQLKSGTASVVCLLNNFYPREAKVQWKVDNALQSGNSQESVTEQDSKDSTYSLSSTLTLSKADYEKHKVYACEVTHQGLSSPVTKSFNRGEC
notes: hIgG1-YTE
Kd (human IL-13 [1]): 0.00613 nM
koff (human IL-13 [1]): 9.37e-06 s⁻¹
kon (human IL-13 [1]): 1.53e+06 M⁻¹ s⁻¹
Kd (cynomolgus IL-13): 0.00052 nM
koff (cynomolgus IL-13): 1.09e-06 s⁻¹
kon (cynomolgus IL-13): 2.09e+06 M⁻¹ s⁻¹
IC50, HEK-Blue IL-13Ra1/IL-4Ra STAT6-SEAP reporter assay (human IL-13 [3]): 0.143 µg/mL
Kd (human IL-13 [7]): 0.0484 nM
koff (human IL-13 [7]): 2.64e-05 s⁻¹
kon (human IL-13 [7]): 594000 M⁻¹ s⁻¹
Kd (human IL-13 [5]): < 0.1 nM
Kd (human IL-13 [6]): 0.0551 nM
koff (human IL-13 [6]): 2.66e-05 s⁻¹
kon (human IL-13 [6]): 483000 M⁻¹ s⁻¹

B5: Ref3 (antibody, human IgG1, kappa)
heavy: QVTLRESGPALVKPTQTLTLTCTVSGFSLSAYSVNWIRQPPGKALEWLAMIWGDGKIVYNSALKSRLTISKDTSKNQVVLTMTNMDPVDTATYYCAGDGYYPYAMDNWGQGSLVTVSSASTKGPSVFPLAPSSKSTSGGTAALGCLVKDYFPEPVTVSWNSGALTSGVHTFPAVLQSSGLYSLSSVVTVPSSSLGTQTYICNVNHKPSNTKVDKRVEPKSCDKTHTCPPCPAPEFEGGPSVFLFPPKPKDTLYITREPEVTCVVVDVSHEDPEVKFNWYVDGVEVHNAKTKPREEQYNSTYRVVSVLTVLHQDWLNGKEYKCKVSNKALPASIEKTISKAKGQPREPQVYTLPPSREEMTKNQVSLTCLVKGFYPSDIAVEWESNGQPENNYKTTPPVLDSDGSFFLYSKLTVDKSRWQQGNVFSCSVMHEALHNHYTQKSLSLSPGK
light: DIVMTQSPDSLSVSLGERATINCRASKSVDSYGNSFMHWYQQKPGQPPKLLIYLASNLESGVPDRFSGSGSGTDFTLTISSLQAEDVAVYYCQQNNEDPRTFGGGTKVEIKRTVAAPSVFIFPPSDEQLKSGTASVVCLLNNFYPREAKVQWKVDNALQSGNSQESVTEQDSKDSTYSLSSTLTLSKADYEKHKVYACEVTHQGLSSPVTKSFNRGEC
binding result (mouse IL-13): no binding
Mean IC50 (nM) Donor 1, Phospho-STAT6 assay in human CD14+ monocytes (human IL-13 [8]): 32.2 nM
Mean IC50 (nM) Donor 2, Phospho-STAT6 assay in human CD14+ monocytes (human IL-13 [8]): 31.3 nM
Mean IC50 (nM) Donor 3, Phospho-STAT6 assay in human CD14+ monocytes (human IL-13 [8]): 33.9 nM
Kd (human IL-13 [6]): 0.0507 nM
koff (human IL-13 [6]): 2.52e-05 s⁻¹
kon (human IL-13 [6]): 501000 M⁻¹ s⁻¹

B7: AbM (antibody, human IgG1, kappa, V domains shown)
VH: QVTLRESGPALVKPTQTLTLTCTVSGASLSAYSVNWIRQPPGKALEWLAMIWGDGKIVYNSALKSRLTISKDTSKNQVVLTMTNMDPVDTATYYCAGDGYFPYAMDNWGQGSLVTVSS
VL: DIVMTQSPDSLSVSLGERATINCRASKSVDYYGRSYMHWYQQKPGQPPKLLIYLASNLESGVPDRFSGSGSGTDFTLTISSLQAEDVAVYYCQQNNEDPRTFGGGTKVEIKR
IC50, HEK-Blue IL-13Ra1/IL-4Ra STAT6-SEAP reporter assay (human IL-13 [3]): 0.136 µg/mL
Kd (human IL-13 [4]): < 0.015 nM

Results, then the binder that gave them:

IC50, HEK-Blue IL-13Ra1/IL-4Ra STAT6-SEAP reporter assay (human IL-13 [3]): 0.165 µg/mL
Kd (human IL-13 [4]): < 0.015 nM
B2: AbO (antibody, human IgG1, kappa, V domains shown)
VH: QVTLRESGPALVKPTQTLTLTCTVSGYSLSAYSVNWIRQPPGKALEWLAMIWGDGKIVYNSALKSRLTISKDTSKNQVVLTMTNMDPVDTATYYCAGDGYFPYAMDVWGQGSLVTVSS
VL: DIVMTQSPDSLSVSLGERATINCRASKSVDYYGHSYMHWYQQKPGQPPKLLIYLASNLESGVPDRFSGSGSGTDFTLTISSLQAEDVAVYYCQQNNEDPRTFGGGTKVEIKR

IC50, HEK-Blue IL-13Ra1/IL-4Ra STAT6-SEAP reporter assay (human IL-13 [3]): 0.152 µg/mL
Kd (human IL-13 [4]): < 0.015 nM
B4: AbP (antibody, human IgG1, kappa, V domains shown)
VH: QVTLRESGPALVKPTQTLTLTCTVSGASLSAYSVNWIRQPPGKALEWLAMIWGDGKVVYNSALKSRLTISKDTSKNQVVLTMTNMDPVDTATYYCAGDGYFPYAMDHWGQGSLVTVSS
VL: DIVMTQSPDSLSVSLGERATINCRASKSVDSYGNSYMHWYQQKPGQPPKLLIYWASNLESGVPDRFSGSGSGTDFTLTISSLQAEDVAVYYCQQNNEDPRTFGGGTKVEIKR

IC50, HEK-Blue IL-13Ra1/IL-4Ra STAT6-SEAP reporter assay (human IL-13 [3]): 0.14 µg/mL
Kd (human IL-13 [4]): < 0.015 nM
B6: AbN (antibody, human IgG1, kappa, V domains shown)
VH: QVTLRESGPALVKPTQTLTLTCTVSGASLSAYSVNWIRQPPGKALEWLAMIWGDGKIVYNSALKSRLTISKDTSKNQVVLTMTNMDPVDTATYYCAGDGYYPYAMDNWGQGSLVTVSS
VL: DIVMTQSPDSLSVSLGERATINCRASESVDYYGHSYMHWYQQKPGQPPKLLIYLASNLESGVPDRFSGSGSGTDFTLTISSLQAEDVAVYYCQQNNEDPRTFGGGTKVEIKR
